In patent publication US20200339700A1 (Bristol-Myers Squibb, published 2020) one finds Kd and Kapp data, which are given here for eleven molecules.

Assay [1] addresses T1, human CD40 (human, UniProt P25942 21-193).
T1 construct: also called huCD40; TNFRSF5
Put plainly: ELISA; further experiments (Table 6 ELISA), reference value in the text. The procedure: (§1) An ELISA was performed to confirm that the improved antibodies retained affinity for CD40.
(ELISA stands for enzyme-linked immunosorbent assay.)

For assay [2], the target named is T1, human CD40. Put plainly: ELISA; first screen of the VL/VH pairs (Table 4), head in nM.
The target in assay [3] is T1, human CD40. Put plainly: ELISA.
Assay [4] concerns the target T1, human CD40. Put plainly: antigen binding (method not named; ELISA in the rest of Example 2).
For assay [5], the target named is T1, human CD40. Put plainly: ELISA. The procedure: as §1
The source holds these as a separate data set.

The target in assay [6] is T1, human CD40. Put plainly: ELISA; further experiments (Table 6), 4 day titer. The procedure:
as §1

T1 sequence (P25942 21-193 limits assumed): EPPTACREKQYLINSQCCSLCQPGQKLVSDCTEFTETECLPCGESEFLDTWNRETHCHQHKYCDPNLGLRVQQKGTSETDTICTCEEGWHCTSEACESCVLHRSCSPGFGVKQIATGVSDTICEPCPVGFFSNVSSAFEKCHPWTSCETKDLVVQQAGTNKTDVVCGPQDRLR

B1: antibody 12D6-24 (antibody, human IgG1, kappa, V domains shown)
VH: QVQLVQSGAEVKKPGASVKVSCKASGYTFTGYNMNWVRQAPGQGLEWMGNIDPYYGNTNYNQKFKGRVTMTTDTSTSTAYMELRSLRSDDTAVYYCARLGLQLYALDYWGQGTTVTVSS
VL: DIVMTQTPLSLPVTPGEPASISCRSSQSLVHSNANTYLHWYLQKPGQSPQLLIYKLTNRFFGVPDRFSGSGSGTDFTLKISRVEAEDVGVYYCSQSIHVPWTFGGGTKVEIKR
notes: also called mAb 12D6-24; unmodified 12D6-24
As for B1, the figures for the equilibrium dissociation constant (Kd) in assay [1] and in assay [2] were 0.24 nM and 0.2 nM, respectively.

B2: 12D6-24 variant L5H1 (antibody, human IgG1, V domains shown)
VH: QVQLVQSGAEVKKPGASVKVSCKASGYTFTGYNMNWVRQAPGQGLEWMGNIDPYYGNTNYNQKFKGRVTMTTDTSTSTAYMELRSLRSDDTAVYYCARLGLQLYALDYWGQGTTVTVSS
VL: EIVMTQSPATLSVSPGERATLSCRASQSVSSNLAWYLHWYLQKPGQAPRLLIYKLTNRFFGIPARFSGSGSGTDFTLTISRVEAEDFAVYYCQQSIHVPWTFGQGTKVEIK
Take B2: the equilibrium dissociation constant (Kd) in assay [3] amounted to 1.6 nM.

B3: 12D6-24 variant L2H1 (antibody, human IgG1, V domains shown)
VH: QVQLVQSGAEVKKPGASVKVSCKASGYTFTGYNMNWVRQAPGQGLEWMGNIDPYYGNTNYNQKFKGRVTMTTDTSTSTAYMELRSLRSDDTAVYYCARLGLQLYALDYWGQGTTVTVSS
VL: EIVMTQSPATLSVSPGERATLSCRASQSVSSNLAWYQQKPGQAPRLLIYKLTNRFFGIPARFSGSGSGTDFTLTISRVEAEDFAVYYCQQSIHVPWTFGQGTKVEIK
With B3, the Kd in assay [3] is > 100 nM.

B4: 12D6-24-L4H4 (antibody, human IgG1, V domains shown)
VH: QVQLVQSGAEVKKPGASVKVSCKASGYTFTGYNMNWVRQAPGQGLEWMGNIDPYYGNTNYNQKFKGRTTLTADTSTSTAYMELSSLRSDDTAVYYCARLGLQLYALDYWGQGTLVTVSS
VL: DIVLTQSPDSLAVSLGERATINCRASQSLVHSNANTYLHWYQQKPGQPPKLLIYKLTNRFFGVPDRFSGSGSGTDFTLTISSLQAEDVAVYYCQQSIHVPWTFGQGTKLEIK
In turn, B4 returned a Kapp in assay [4] of 0.24 nM. This molecule yielded a Kd in assay [5] of 240 nM.

B5: 12D6-24 variant L1H2 (antibody, human IgG1, V domains shown)
VH: QVQLVQSGAEVKKPGSSVKVSCKASGYTFTGYNMNWVRQAPGQGLEWMGNIDPYYGNTNYNQKFKGKTTLTADKSTSTAYMELSSLRSDDTAVYYCARLGLQLYALDYWGQGTLVTVSS
VL: DIVMTQTPLSLPVTPGEPASISCRSSQSLVHSNANTYLHWYLQKPGQSPQLLIYKLTNRFFGVPDRFSGSGSGTDFTLKISRVEAEDVGVYYCSQSIHVPWTFGGGTKVEIK
As for B5, in assay [3], the equilibrium dissociation constant (Kd) stood at 0.6 nM.

B6: 12D6-24 variant L3H1 (antibody, human IgG1, V domains shown)
VH: QVQLVQSGAEVKKPGASVKVSCKASGYTFTGYNMNWVRQAPGQGLEWMGNIDPYYGNTNYNQKFKGRVTMTTDTSTSTAYMELRSLRSDDTAVYYCARLGLQLYALDYWGQGTTVTVSS
VL: EIVMTQSPATLSVSPGERATLSCRSSQSLVHSNANTYQQKPGQAPRLLIYKLTNRFFGIPDRFSGSGSGTDFTLTISRVEAEDFAVYYCQQSIHVPWTFGQGTKVEIK
For the molecule B6, in assay [3], the dissociation constant (Kd) was > 100 nM.

B7: 12D6-24 variant L5H2 (antibody, human IgG1, V domains shown)
VH: QVQLVQSGAEVKKPGSSVKVSCKASGYTFTGYNMNWVRQAPGQGLEWMGNIDPYYGNTNYNQKFKGKTTLTADKSTSTAYMELSSLRSDDTAVYYCARLGLQLYALDYWGQGTLVTVSS
VL: EIVMTQSPATLSVSPGERATLSCRASQSVSSNLAWYLHWYLQKPGQAPRLLIYKLTNRFFGIPARFSGSGSGTDFTLTISRVEAEDFAVYYCQQSIHVPWTFGQGTKVEIK
In the case of B7, binding in assay [3] was put at a Kd of 1.6 nM.

B8: 12D6-24 variant L1H4 (antibody, human IgG1, V domains shown)
VH: QVQLVQSGAEVKKPGASVKVSCKASGYTFTGYNMNWVRQAPGQGLEWMGNIDPYYGNTNYNQKFKGRTTLTADTSTSTAYMELSSLRSDDTAVYYCARLGLQLYALDYWGQGTLVTVSS
VL: DIVMTQTPLSLPVTPGEPASISCRSSQSLVHSNANTYLHWYLQKPGQSPQLLIYKLTNRFFGVPDRFSGSGSGTDFTLKISRVEAEDVGVYYCSQSIHVPWTFGGGTKVEIK
Molecule B8 had a Kapp in assay [4] of 0.22 nM. Also, binding in assay [5] was characterised by a dissociation constant (Kd) of 230 nM.

B9: 12D6-24-L4H1 (antibody, human IgG1, V domains shown)
VH: QVQLVQSGAEVKKPGASVKVSCKASGYTFTGYNMNWVRQAPGQGLEWMGNIDPYYGNTNYNQKFKGRVTMTTDTSTSTAYMELRSLRSDDTAVYYCARLGLQLYALDYWGQGTTVTVSS
VL: DIVLTQSPDSLAVSLGERATINCRASQSLVHSNANTYLHWYQQKPGQPPKLLIYKLTNRFFGVPDRFSGSGSGTDFTLTISSLQAEDVAVYYCQQSIHVPWTFGQGTKLEIK
In the case of B9, the Kapp in assay [4] worked out at 0.25 nM. The values for the Kd in assay [2] and in assay [6] were 0.2 nM and 0.25 nM, respectively.

B10: 12D6-24 variant L2H2 (antibody, human IgG1, V domains shown)
VH: QVQLVQSGAEVKKPGSSVKVSCKASGYTFTGYNMNWVRQAPGQGLEWMGNIDPYYGNTNYNQKFKGKTTLTADKSTSTAYMELSSLRSDDTAVYYCARLGLQLYALDYWGQGTLVTVSS
VL: EIVMTQSPATLSVSPGERATLSCRASQSVSSNLAWYQQKPGQAPRLLIYKLTNRFFGIPARFSGSGSGTDFTLTISRVEAEDFAVYYCQQSIHVPWTFGQGTKVEIK
On to B10, for which the equilibrium dissociation constant (Kd) in assay [3] was > 100 nM.

B11: 12D6-24 variant L4H2 (antibody, human IgG1, V domains shown)
VH: QVQLVQSGAEVKKPGSSVKVSCKASGYTFTGYNMNWVRQAPGQGLEWMGNIDPYYGNTNYNQKFKGKTTLTADKSTSTAYMELSSLRSDDTAVYYCARLGLQLYALDYWGQGTLVTVSS
VL: DIVLTQSPDSLAVSLGERATINCRASQSLVHSNANTYLHWYQQKPGQPPKLLIYKLTNRFFGVPDRFSGSGSGTDFTLTISSLQAEDVAVYYCQQSIHVPWTFGQGTKLEIK
B11 returned a Kapp in assay [4] of 0.25 nM. Further, the dissociation constant (Kd) in assay [2] stood at 0.2 nM; in assay [6] it was 0.25 nM.

In general, Kd refers to the free concentration of one partner at which half of the binding sites on the other are occupied at equilibrium, for simple one-to-one binding. A low value points to a tighter complex.
